{"source": "the supplement of paper PMC10567573", "parents": {"B1": {"name": "GMCL1 (parent)", "chain": "RPDTGDDAAGHGFCYCAGSHKRKR"}}}
{"variants_of": "B1", "assay": "protein stability index of a GFP-peptide fusion (GPS, HEK-293T) (PSI 1-6); higher = more stable", "conditions": "c terminus: a fixed tail appended"}
{"variant": "RPDIGDDAAGHGFCYCAGSHKRKR", "note": "[T4I]", "protein stability index": 3.06}
{"variant": "RPDAGDDAAGHGFCYCAGSHKRKR", "note": "[T4A]", "protein stability index": 3.06}
{"variant": "RPDKGDDAAGHGFCYCAGSHKRKR", "note": "[T4K]", "protein stability index": 3.14}
{"variant": "RPDCGDDAAGHGFCYCAGSHKRKR", "note": "[T4C]", "protein stability index": 2.14}
{"variant": "RPDQGDDAAGHGFCYCAGSHKRKR", "note": "[T4Q]", "protein stability index": 3.47}
{"variant": "RPDGGDDAAGHGFCYCAGSHKRKR", "note": "[T4G]", "protein stability index": 3.93}
{"variant": "RPDVGDDAAGHGFCYCAGSHKRKR", "note": "[T4V]", "protein stability index": 3}
{"variant": "RPDFGDDAAGHGFCYCAGSHKRKR", "note": "[T4F]", "protein stability index": 3.28}
{"variant": "RPDPGDDAAGHGFCYCAGSHKRKR", "note": "[T4P]", "protein stability index": 2.96}
{"variant": "RPDYGDDAAGHGFCYCAGSHKRKR", "note": "[T4Y]", "protein stability index": 2.87}
{"variant": "RPDLGDDAAGHGFCYCAGSHKRKR", "note": "[T4L]", "protein stability index": 2.81}
{"variant": "RPDWGDDAAGHGFCYCAGSHKRKR", "note": "[T4W]", "protein stability index": 2.71}
{"variant": "RPDRGDDAAGHGFCYCAGSHKRKR", "note": "[T4R]", "protein stability index": 3.6}
{"variant": "RPDSGDDAAGHGFCYCAGSHKRKR", "note": "[T4S]", "protein stability index": 3.06}
{"variant": "RPDNGDDAAGHGFCYCAGSHKRKR", "note": "[T4N]", "protein stability index": 2.97}
{"variant": "RPDHGDDAAGHGFCYCAGSHKRKR", "note": "[T4H]", "protein stability index": 3.11}
{"variant": "RPDEGDDAAGHGFCYCAGSHKRKR", "note": "[T4E]", "protein stability index": 3.16}
{"variant": "RPDDGDDAAGHGFCYCAGSHKRKR", "note": "[T4D]", "protein stability index": 3.79}
{"variant": "RPDMGDDAAGHGFCYCAGSHKRKR", "note": "[T4M]", "protein stability index": 2.98}
{"variant": "RPDTADDAAGHGFCYCAGSHKRKR", "note": "[G5A]", "protein stability index": 3.37}
{"variant": "RPDTCDDAAGHGFCYCAGSHKRKR", "note": "[G5C]", "protein stability index": 3.63}
{"variant": "RPDTTDDAAGHGFCYCAGSHKRKR", "note": "[G5T]", "protein stability index": 2.97}
{"variant": "RPDTIDDAAGHGFCYCAGSHKRKR", "note": "[G5I]", "protein stability index": 3.28}
{"variant": "RPDTFDDAAGHGFCYCAGSHKRKR", "note": "[G5F]", "protein stability index": 2.59}
{"variant": "RPDTPDDAAGHGFCYCAGSHKRKR", "note": "[G5P]", "protein stability index": 3.48}
{"variant": "RPDTQDDAAGHGFCYCAGSHKRKR", "note": "[G5Q]", "protein stability index": 2.87}
{"variant": "RPDTLDDAAGHGFCYCAGSHKRKR", "note": "[G5L]", "protein stability index": 3.1}
{"variant": "RPDTNDDAAGHGFCYCAGSHKRKR", "note": "[G5N]", "protein stability index": 3.17}
{"variant": "RPDTEDDAAGHGFCYCAGSHKRKR", "note": "[G5E]", "protein stability index": 2.93}
{"variant": "RPDTKDDAAGHGFCYCAGSHKRKR", "note": "[G5K]", "protein stability index": 3.45}
{"variant": "RPDTYDDAAGHGFCYCAGSHKRKR", "note": "[G5Y]", "protein stability index": 3.27}
{"variant": "RPDTDDDAAGHGFCYCAGSHKRKR", "note": "[G5D]", "protein stability index": 2.89}
{"variant": "RPDTRDDAAGHGFCYCAGSHKRKR", "note": "[G5R]", "protein stability index": 3.15}
{"variant": "RPDTSDDAAGHGFCYCAGSHKRKR", "note": "[G5S]", "protein stability index": 3.5}
{"variant": "RPDTWDDAAGHGFCYCAGSHKRKR", "note": "[G5W]", "protein stability index": 2.59}
{"variant": "RPDTHDDAAGHGFCYCAGSHKRKR", "note": "[G5H]", "protein stability index": 2.48}
{"variant": "RPDTVDDAAGHGFCYCAGSHKRKR", "note": "[G5V]", "protein stability index": 2.99}
{"variant": "RPDTMDDAAGHGFCYCAGSHKRKR", "note": "[G5M]", "protein stability index": 2.84}
{"variant": "RPDTGEDAAGHGFCYCAGSHKRKR", "note": "[D6E]", "protein stability index": 3.46}
{"variant": "RPDTGFDAAGHGFCYCAGSHKRKR", "note": "[D6F]", "protein stability index": 2.73}
{"variant": "RPDTGSDAAGHGFCYCAGSHKRKR", "note": "[D6S]", "protein stability index": 2.97}
{"variant": "RPDTGADAAGHGFCYCAGSHKRKR", "note": "[D6A]", "protein stability index": 3.21}
{"variant": "RPDTGCDAAGHGFCYCAGSHKRKR", "note": "[D6C]", "protein stability index": 3.8}
{"variant": "RPDTGNDAAGHGFCYCAGSHKRKR", "note": "[D6N]", "protein stability index": 3.57}
{"variant": "RPDTGPDAAGHGFCYCAGSHKRKR", "note": "[D6P]", "protein stability index": 2.96}
{"variant": "RPDTGWDAAGHGFCYCAGSHKRKR", "note": "[D6W]", "protein stability index": 2.99}
{"variant": "RPDTGIDAAGHGFCYCAGSHKRKR", "note": "[D6I]", "protein stability index": 3.05}
{"variant": "RPDTGMDAAGHGFCYCAGSHKRKR", "note": "[D6M]", "protein stability index": 2.79}
{"variant": "RPDTGQDAAGHGFCYCAGSHKRKR", "note": "[D6Q]", "protein stability index": 3.46}
{"variant": "RPDTGVDAAGHGFCYCAGSHKRKR", "note": "[D6V]", "protein stability index": 2.93}
{"variant": "RPDTGGDAAGHGFCYCAGSHKRKR", "note": "[D6G]", "protein stability index": 3.16}
{"variant": "RPDTGRDAAGHGFCYCAGSHKRKR", "note": "[D6R]", "protein stability index": 3.23}
{"variant": "RPDTGLDAAGHGFCYCAGSHKRKR", "note": "[D6L]", "protein stability index": 3.13}
{"variant": "RPDTGTDAAGHGFCYCAGSHKRKR", "note": "[D6T]", "protein stability index": 2.89}
{"variant": "RPDTGHDAAGHGFCYCAGSHKRKR", "note": "[D6H]", "protein stability index": 2.8}
{"variant": "RPDTGKDAAGHGFCYCAGSHKRKR", "note": "[D6K]", "protein stability index": 3.27}
{"variant": "PPDTGDDAAGHGFCYCAGSHKRKR", "note": "[R1P]", "protein stability index": 2.71}
{"variant": "WPDTGDDAAGHGFCYCAGSHKRKR", "note": "[R1W]", "protein stability index": 3.2}
{"variant": "SPDTGDDAAGHGFCYCAGSHKRKR", "note": "[R1S]", "protein stability index": 2.96}
{"variant": "FPDTGDDAAGHGFCYCAGSHKRKR", "note": "[R1F]", "protein stability index": 1.76}
{"variant": "TPDTGDDAAGHGFCYCAGSHKRKR", "note": "[R1T]", "protein stability index": 2.97}
{"variant": "IPDTGDDAAGHGFCYCAGSHKRKR", "note": "[R1I]", "protein stability index": 2.34}
{"variant": "VPDTGDDAAGHGFCYCAGSHKRKR", "note": "[R1V]", "protein stability index": 2.5}
{"variant": "LPDTGDDAAGHGFCYCAGSHKRKR", "note": "[R1L]", "protein stability index": 3.2}
{"variant": "EPDTGDDAAGHGFCYCAGSHKRKR", "note": "[R1E]", "protein stability index": 2.84}
{"variant": "GPDTGDDAAGHGFCYCAGSHKRKR", "note": "[R1G]", "protein stability index": 3.97}
{"variant": "YPDTGDDAAGHGFCYCAGSHKRKR", "note": "[R1Y]", "protein stability index": 2}
{"variant": "CPDTGDDAAGHGFCYCAGSHKRKR", "note": "[R1C]", "protein stability index": 2.99}
{"variant": "DPDTGDDAAGHGFCYCAGSHKRKR", "note": "[R1D]", "protein stability index": 2.92}
{"variant": "QPDTGDDAAGHGFCYCAGSHKRKR", "note": "[R1Q]", "protein stability index": 2.98}
{"variant": "APDTGDDAAGHGFCYCAGSHKRKR", "note": "[R1A]", "protein stability index": 2.89}
{"variant": "KPDTGDDAAGHGFCYCAGSHKRKR", "note": "[R1K]", "protein stability index": 2.99}
{"variant": "NPDTGDDAAGHGFCYCAGSHKRKR", "note": "[R1N]", "protein stability index": 2.83}
{"variant": "MPDTGDDAAGHGFCYCAGSHKRKR", "note": "[R1M]", "protein stability index": 3.16}
{"variant": "HPDTGDDAAGHGFCYCAGSHKRKR", "note": "[R1H]", "protein stability index": 3.08}
{"variant": "RHDTGDDAAGHGFCYCAGSHKRKR", "note": "[P2H]", "protein stability index": 2.96}
{"variant": "RTDTGDDAAGHGFCYCAGSHKRKR", "note": "[P2T]", "protein stability index": 2.3}
{"variant": "RNDTGDDAAGHGFCYCAGSHKRKR", "note": "[P2N]", "protein stability index": 3.27}
{"variant": "RCDTGDDAAGHGFCYCAGSHKRKR", "note": "[P2C]", "protein stability index": 3.23}
{"variant": "RWDTGDDAAGHGFCYCAGSHKRKR", "note": "[P2W]", "protein stability index": 3.4}
{"variant": "RDDTGDDAAGHGFCYCAGSHKRKR", "note": "[P2D]", "protein stability index": 3.46}
{"variant": "RQDTGDDAAGHGFCYCAGSHKRKR", "note": "[P2Q]", "protein stability index": 2.91}
{"variant": "RADTGDDAAGHGFCYCAGSHKRKR", "note": "[P2A]", "protein stability index": 3.02}
{"variant": "RRDTGDDAAGHGFCYCAGSHKRKR", "note": "[P2R]", "protein stability index": 2.85}
{"variant": "RIDTGDDAAGHGFCYCAGSHKRKR", "note": "[P2I]", "protein stability index": 3.08}
{"variant": "RYDTGDDAAGHGFCYCAGSHKRKR", "note": "[P2Y]", "protein stability index": 3.41}
{"variant": "RVDTGDDAAGHGFCYCAGSHKRKR", "note": "[P2V]", "protein stability index": 2.89}
{"variant": "RMDTGDDAAGHGFCYCAGSHKRKR", "note": "[P2M]", "protein stability index": 3.05}
{"variant": "REDTGDDAAGHGFCYCAGSHKRKR", "note": "[P2E]", "protein stability index": 3.14}
{"variant": "RLDTGDDAAGHGFCYCAGSHKRKR", "note": "[P2L]", "protein stability index": 2.77}
{"variant": "RSDTGDDAAGHGFCYCAGSHKRKR", "note": "[P2S]", "protein stability index": 2.95}
{"variant": "RFDTGDDAAGHGFCYCAGSHKRKR", "note": "[P2F]", "protein stability index": 2.91}
{"variant": "RKDTGDDAAGHGFCYCAGSHKRKR", "note": "[P2K]", "protein stability index": 3.35}
{"variant": "RGDTGDDAAGHGFCYCAGSHKRKR", "note": "[P2G]", "protein stability index": 3.01}
